Assay [1] deals with T1, rat APJ receptor (rat, UniProt Q9JHG3 1-377).
T1 sequence (looked up): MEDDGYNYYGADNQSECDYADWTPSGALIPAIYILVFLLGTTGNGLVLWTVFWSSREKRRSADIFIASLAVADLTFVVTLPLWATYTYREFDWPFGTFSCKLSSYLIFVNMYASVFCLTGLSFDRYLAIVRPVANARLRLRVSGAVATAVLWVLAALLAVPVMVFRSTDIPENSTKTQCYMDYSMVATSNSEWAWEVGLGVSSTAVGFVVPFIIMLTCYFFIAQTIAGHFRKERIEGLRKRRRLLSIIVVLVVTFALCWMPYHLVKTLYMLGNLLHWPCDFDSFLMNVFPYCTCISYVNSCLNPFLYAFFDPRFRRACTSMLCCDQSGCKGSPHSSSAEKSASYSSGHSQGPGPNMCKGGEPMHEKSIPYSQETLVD
Description: cell-based or functional assay.

The target of assay [2] is T2, human APJ receptor (human, UniProt P35414 1-380).
T2 sequence (looked up): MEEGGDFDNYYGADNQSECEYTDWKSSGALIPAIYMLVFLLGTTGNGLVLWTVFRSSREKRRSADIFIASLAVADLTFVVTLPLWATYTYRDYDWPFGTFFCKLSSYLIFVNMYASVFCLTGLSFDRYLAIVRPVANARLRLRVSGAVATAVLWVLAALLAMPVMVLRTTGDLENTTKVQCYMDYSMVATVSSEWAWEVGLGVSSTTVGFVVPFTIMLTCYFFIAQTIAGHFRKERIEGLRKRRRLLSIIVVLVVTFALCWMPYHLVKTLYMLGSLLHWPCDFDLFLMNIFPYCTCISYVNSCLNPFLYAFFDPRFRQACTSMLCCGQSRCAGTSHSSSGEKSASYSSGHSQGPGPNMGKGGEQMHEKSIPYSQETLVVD
Briefly: cell-based or functional assay.

Starred links: 1 amine or outer side, 2 acyl side, 3 side chain; linkers in the order of their positions; H or OH if unused. Non-standard residues stand in square brackets, D forms with d. *: point of attachment. NPipG = 2-(piperidin-4-ylamino)acetic acid, O=C(CN(C1CCN([*:3])CC1)[*:1])[*:2]; AC4Abu = α-carboxy-4-aminobutyric acid, O=C(C(CCN[*:1])C(=O)[*:3])[*:2]; Oic = O=C(O)[C@@H]1C[C@@H]2CCCC[C@@H]2N1; Phe(4-Cl) = N[C@@H](Cc1ccc(Cl)cc1)C(=O)O; γGlu = O=C(O)[C@H](CCC(=O)[*:2])N[*:1]; d(β3hF) = N[C@@H](CC(=O)O)Cc1ccccc1; Igl = N[C@H](C(=O)O)C1Cc2ccccc2C1; NMeR = CN[C@@H](CCCNC(=N)N)C(=O)O; Palmitoyl = CCCCCCCCCCCCCCCC(=O)*; Cha = N[C@@H](CC1CCCCC1)C(=O)O; αMeOrn = C[C@](N)(CCCN)C(=O)O; β3hP = O=C(O)C[C@@H]1CCCN1; Nle = CCCC[C@H](N)C(=O)O; Dab = NCC[C@H](N)C(=O)O; Dap = NC[C@H](N)C(=O)O; AEEA = NCCOCCOCC(=O)O; Aib = CC(C)(N)C(=O)O; Inp = O=C(O)C1CCNCC1; Nip = nipecotic acid; Sar = CNCC(=O)O

B1: SEQ ID NO: 625 (peptide)
peptide: Palmitoyl-[γGlu][AEEA][AEEA][dQ]RP[NMeR][Cha]SH[Igl]G[Oic][Nle][β3hP][d(β3hF)]-OH
SMILES: CCCCCCCCCCCCCCCC(=O)N[C@@H](CCC(=O)NCCOCCOCC(=O)NCCOCCOCC(=O)N[C@H](CCC(N)=O)C(=O)N[C@@H](CCCNC(=N)N)C(=O)N1CCC[C@H]1C(=O)N(C)[C@@H](CCCNC(=N)N)C(=O)N[C@@H](CC1CCCCC1)C(=O)N[C@@H](CO)C(=O)N[C@@H](Cc1c[nH]cn1)C(=O)N[C@H](C(=O)NCC(=O)N1[C@H](C(=O)N[C@@H](CCCC)C(=O)N2CCC[C@H]2CC(=O)N[C@@H](CC(=O)O)Cc2ccccc2)C[C@@H]2CCCC[C@@H]21)C1Cc2ccccc2C1)C(=O)O
On to B1, for which the “EC50 Rat APJ Receptor” value in assay [1] turned out to be 20 nM. In addition, the “EC50 Human APJ Receptor” value in assay [2] was found to be 11.1 nM.

B2: SEQ ID NO: 623 (peptide)
peptide: Palmitoyl-[γGlu][AEEA][AEEA][dQ]RP[NMeR][Cha]SH[Dab]G[Oic][Nle][β3hP][d(β3hF)]-OH
SMILES: CCCCCCCCCCCCCCCC(=O)N[C@@H](CCC(=O)NCCOCCOCC(=O)NCCOCCOCC(=O)N[C@H](CCC(N)=O)C(=O)N[C@@H](CCCNC(=N)N)C(=O)N1CCC[C@H]1C(=O)N(C)[C@@H](CCCNC(=N)N)C(=O)N[C@@H](CC1CCCCC1)C(=O)N[C@@H](CO)C(=O)N[C@@H](Cc1c[nH]cn1)C(=O)N[C@@H](CCN)C(=O)NCC(=O)N1[C@H](C(=O)N[C@@H](CCCC)C(=O)N2CCC[C@H]2CC(=O)N[C@@H](CC(=O)O)Cc2ccccc2)C[C@@H]2CCCC[C@@H]21)C(=O)O
On to B2, for which the “EC50 Rat APJ Receptor” value in assay [1] worked out at 9.16 nM. The “EC50 Human APJ Receptor” value in assay [2] is 1.43 nM.

B3: SEQ ID NO: 619 (peptide)
peptide: Palmitoyl-[γGlu][AEEA][AEEA][dQ]RP[NMeR][Cha]SH[αMeOrn]G[Oic][Nle][β3hP][d(β3hF)]-OH
SMILES: CCCCCCCCCCCCCCCC(=O)N[C@@H](CCC(=O)NCCOCCOCC(=O)NCCOCCOCC(=O)N[C@H](CCC(N)=O)C(=O)N[C@@H](CCCNC(=N)N)C(=O)N1CCC[C@H]1C(=O)N(C)[C@@H](CCCNC(=N)N)C(=O)N[C@@H](CC1CCCCC1)C(=O)N[C@@H](CO)C(=O)N[C@@H](Cc1c[nH]cn1)C(=O)N[C@@](C)(CCCN)C(=O)NCC(=O)N1[C@H](C(=O)N[C@@H](CCCC)C(=O)N2CCC[C@H]2CC(=O)N[C@@H](CC(=O)O)Cc2ccccc2)C[C@@H]2CCCC[C@@H]21)C(=O)O
With B3, the “EC50 Rat APJ Receptor” value in assay [1] stood at 125 nM. For the same molecule, the “EC50 Human APJ Receptor” value in assay [2] worked out at 26.2 nM.

B4: SEQ ID NO: 613 (peptide)
peptide: Palmitoyl-[γGlu][AEEA][AEEA][dQ]RP[NMeR][Cha]SHKG[β3hP][Nle][Phe(4-Cl)]-OH
SMILES: CCCCCCCCCCCCCCCC(=O)N[C@@H](CCC(=O)NCCOCCOCC(=O)NCCOCCOCC(=O)N[C@H](CCC(N)=O)C(=O)N[C@@H](CCCNC(=N)N)C(=O)N1CCC[C@H]1C(=O)N(C)[C@@H](CCCNC(=N)N)C(=O)N[C@@H](CC1CCCCC1)C(=O)N[C@@H](CO)C(=O)N[C@@H](Cc1c[nH]cn1)C(=O)N[C@@H](CCCCN)C(=O)NCC(=O)N1CCC[C@H]1CC(=O)N[C@@H](CCCC)C(=O)N[C@@H](Cc1ccc(Cl)cc1)C(=O)O)C(=O)O
Turning to B4, the “EC50 Rat APJ Receptor” value in assay [1] turned out to be 38.8 nM. Besides, the “EC50 Human APJ Receptor” value in assay [2] was 1.66 nM.

B5: SEQ ID NO: 567 (peptide)
peptide: Palmitoyl-[AC4Abu][AEEA][AEEA][dQ]RP[NMeR][Cha]SHKG[Oic][Nle]P[d(β3hF)]-OH
SMILES: CCCCCCCCCCCCCCCC(=O)NCCC(C(=O)O)C(=O)NCCOCCOCC(=O)NCCOCCOCC(=O)N[C@H](CCC(N)=O)C(=O)N[C@@H](CCCNC(=N)N)C(=O)N1CCC[C@H]1C(=O)N(C)[C@@H](CCCNC(=N)N)C(=O)N[C@@H](CC1CCCCC1)C(=O)N[C@@H](CO)C(=O)N[C@@H](Cc1c[nH]cn1)C(=O)N[C@@H](CCCCN)C(=O)NCC(=O)N1[C@H](C(=O)N[C@@H](CCCC)C(=O)N2CCC[C@H]2C(=O)N[C@@H](CC(=O)O)Cc2ccccc2)C[C@@H]2CCCC[C@@H]21
Consider B5, for which the “EC50 Rat APJ Receptor” value in assay [1] is 8.89 nM. Further, in assay [2], the “EC50 Human APJ Receptor” value was found to be 5.15 nM.

B6: SEQ ID NO: 633 (peptide)
peptide: Palmitoyl-[γGlu][AEEA][AEEA][dQ]RP[NMeR][Cha]SH[NPipG]G[Oic][Nle][β3hP][d(β3hF)]-OH
SMILES: CCCCCCCCCCCCCCCC(=O)N[C@@H](CCC(=O)NCCOCCOCC(=O)NCCOCCOCC(=O)N[C@H](CCC(N)=O)C(=O)N[C@@H](CCCNC(=N)N)C(=O)N1CCC[C@H]1C(=O)N(C)[C@@H](CCCNC(=N)N)C(=O)N[C@@H](CC1CCCCC1)C(=O)N[C@@H](CO)C(=O)N[C@@H](Cc1c[nH]cn1)C(=O)N(CC(=O)NCC(=O)N1[C@H](C(=O)N[C@@H](CCCC)C(=O)N2CCC[C@H]2CC(=O)N[C@@H](CC(=O)O)Cc2ccccc2)C[C@@H]2CCCC[C@@H]21)C1CCNCC1)C(=O)O
Take B6: the “EC50 Rat APJ Receptor” value in assay [1] was over 4170 nM. In addition, in assay [2], the “EC50 Human APJ Receptor” value amounted to 10.7 nM.

B7: SEQ ID NO: 626 (peptide)
peptide: Palmitoyl-[γGlu][AEEA][AEEA][dQ]RP[NMeR][Cha]SHK[Sar][Oic][Nle][β3hP][d(β3hF)]-OH
SMILES: CCCCCCCCCCCCCCCC(=O)N[C@@H](CCC(=O)NCCOCCOCC(=O)NCCOCCOCC(=O)N[C@H](CCC(N)=O)C(=O)N[C@@H](CCCNC(=N)N)C(=O)N1CCC[C@H]1C(=O)N(C)[C@@H](CCCNC(=N)N)C(=O)N[C@@H](CC1CCCCC1)C(=O)N[C@@H](CO)C(=O)N[C@@H](Cc1c[nH]cn1)C(=O)N[C@@H](CCCCN)C(=O)N(C)CC(=O)N1[C@H](C(=O)N[C@@H](CCCC)C(=O)N2CCC[C@H]2CC(=O)N[C@@H](CC(=O)O)Cc2ccccc2)C[C@@H]2CCCC[C@@H]21)C(=O)O
Turning to B7, in assay [1], the “EC50 Rat APJ Receptor” value was 24.6 nM. In addition, the “EC50 Human APJ Receptor” value in assay [2] was 12.2 nM.

B8: SEQ ID NO: 624 (peptide)
peptide: Palmitoyl-[γGlu][AEEA][AEEA][dQ]RP[NMeR][Cha]SH[Dap]G[Oic][Nle][β3hP][d(β3hF)]-OH
SMILES: CCCCCCCCCCCCCCCC(=O)N[C@@H](CCC(=O)NCCOCCOCC(=O)NCCOCCOCC(=O)N[C@H](CCC(N)=O)C(=O)N[C@@H](CCCNC(=N)N)C(=O)N1CCC[C@H]1C(=O)N(C)[C@@H](CCCNC(=N)N)C(=O)N[C@@H](CC1CCCCC1)C(=O)N[C@@H](CO)C(=O)N[C@@H](Cc1c[nH]cn1)C(=O)N[C@@H](CN)C(=O)NCC(=O)N1[C@H](C(=O)N[C@@H](CCCC)C(=O)N2CCC[C@H]2CC(=O)N[C@@H](CC(=O)O)Cc2ccccc2)C[C@@H]2CCCC[C@@H]21)C(=O)O
Consider B8, for which the “EC50 Rat APJ Receptor” value in assay [1] stood at 99.7 nM. Further, in assay [2], the “EC50 Human APJ Receptor” value was 21.1 nM.

B9: SEQ ID NO: 569 (peptide)
peptide: Palmitoyl-[AC4Abu][AEEA][AEEA][dQ]RP[NMeR][Cha]SHKG[Oic][Nle][Aib][d(β3hF)]-OH
SMILES: CCCCCCCCCCCCCCCC(=O)NCCC(C(=O)O)C(=O)NCCOCCOCC(=O)NCCOCCOCC(=O)N[C@H](CCC(N)=O)C(=O)N[C@@H](CCCNC(=N)N)C(=O)N1CCC[C@H]1C(=O)N(C)[C@@H](CCCNC(=N)N)C(=O)N[C@@H](CC1CCCCC1)C(=O)N[C@@H](CO)C(=O)N[C@@H](Cc1c[nH]cn1)C(=O)N[C@@H](CCCCN)C(=O)NCC(=O)N1[C@H](C(=O)N[C@@H](CCCC)C(=O)NC(C)(C)C(=O)N[C@@H](CC(=O)O)Cc2ccccc2)C[C@@H]2CCCC[C@@H]21
Take B9: the “EC50 Rat APJ Receptor” value in assay [1] came out at 0.991 nM. The “EC50 Human APJ Receptor” value in assay [2] was 1 nM.
As for Palmitoyl-[AC4Abu][AEEA][AEEA][dQ]RP[NMeR][Cha]SHKG[Nip][Nle][Aib][Phe(4-Cl)]-OH [SEQ ID NO: 582], the “EC50 Rat APJ Receptor” value in assay [1] was 29.3 nM. In addition, in assay [2], the “EC50 Human APJ Receptor” value came to 8.5 nM.

B10: SEQ ID NO: 583 (peptide)
peptide: Palmitoyl-[AC4Abu][AEEA][AEEA][dQ]RP[NMeR][Cha]SHKG[Inp][Nle][Aib][Phe(4-Cl)]-OH
SMILES: CCCCCCCCCCCCCCCC(=O)NCCC(C(=O)O)C(=O)NCCOCCOCC(=O)NCCOCCOCC(=O)N[C@H](CCC(N)=O)C(=O)N[C@@H](CCCNC(=N)N)C(=O)N1CCC[C@H]1C(=O)N(C)[C@@H](CCCNC(=N)N)C(=O)N[C@@H](CC1CCCCC1)C(=O)N[C@@H](CO)C(=O)N[C@@H](Cc1c[nH]cn1)C(=O)N[C@@H](CCCCN)C(=O)NCC(=O)N1CCC(C(=O)N[C@@H](CCCC)C(=O)NC(C)(C)C(=O)N[C@@H](Cc2ccc(Cl)cc2)C(=O)O)CC1
Take B10: the “EC50 Rat APJ Receptor” value in assay [1] worked out at 49.2 nM. In assay [2], the “EC50 Human APJ Receptor” value turned out to be 5.96 nM.

The record behind these values is patent publication US10941182 (Amgen, dated 2021).
